Data on 2 molecules can be found in article PMC12635394, “UBE2O-mediated ubiquitylation directs cytoplasmic CTNNA1 to promote cell-to-ECM adhesions” (EMBO Reports, 2025).

Assay [1] addresses T1, Flag-UBE2O-TwinStrep (purified full-length human UBE2O, wild type) (human, UniProt Q9C0C9 1-1292).
T1 construct: UBE2O, human, full-length WT in N-terminal Flag-tagged and C-terminal TwinStrep-tagged pLV vector; also called Flag-UBE2O-TS; Flag-UBE2O-WT-TwinStrep; source: Expi293F, transfected, purified (Strep-Tactin XT, Superdex 200); not shown: Flag, N-terminal, kept; TwinStrep, C-terminal, kept
T1 sequence (looked up): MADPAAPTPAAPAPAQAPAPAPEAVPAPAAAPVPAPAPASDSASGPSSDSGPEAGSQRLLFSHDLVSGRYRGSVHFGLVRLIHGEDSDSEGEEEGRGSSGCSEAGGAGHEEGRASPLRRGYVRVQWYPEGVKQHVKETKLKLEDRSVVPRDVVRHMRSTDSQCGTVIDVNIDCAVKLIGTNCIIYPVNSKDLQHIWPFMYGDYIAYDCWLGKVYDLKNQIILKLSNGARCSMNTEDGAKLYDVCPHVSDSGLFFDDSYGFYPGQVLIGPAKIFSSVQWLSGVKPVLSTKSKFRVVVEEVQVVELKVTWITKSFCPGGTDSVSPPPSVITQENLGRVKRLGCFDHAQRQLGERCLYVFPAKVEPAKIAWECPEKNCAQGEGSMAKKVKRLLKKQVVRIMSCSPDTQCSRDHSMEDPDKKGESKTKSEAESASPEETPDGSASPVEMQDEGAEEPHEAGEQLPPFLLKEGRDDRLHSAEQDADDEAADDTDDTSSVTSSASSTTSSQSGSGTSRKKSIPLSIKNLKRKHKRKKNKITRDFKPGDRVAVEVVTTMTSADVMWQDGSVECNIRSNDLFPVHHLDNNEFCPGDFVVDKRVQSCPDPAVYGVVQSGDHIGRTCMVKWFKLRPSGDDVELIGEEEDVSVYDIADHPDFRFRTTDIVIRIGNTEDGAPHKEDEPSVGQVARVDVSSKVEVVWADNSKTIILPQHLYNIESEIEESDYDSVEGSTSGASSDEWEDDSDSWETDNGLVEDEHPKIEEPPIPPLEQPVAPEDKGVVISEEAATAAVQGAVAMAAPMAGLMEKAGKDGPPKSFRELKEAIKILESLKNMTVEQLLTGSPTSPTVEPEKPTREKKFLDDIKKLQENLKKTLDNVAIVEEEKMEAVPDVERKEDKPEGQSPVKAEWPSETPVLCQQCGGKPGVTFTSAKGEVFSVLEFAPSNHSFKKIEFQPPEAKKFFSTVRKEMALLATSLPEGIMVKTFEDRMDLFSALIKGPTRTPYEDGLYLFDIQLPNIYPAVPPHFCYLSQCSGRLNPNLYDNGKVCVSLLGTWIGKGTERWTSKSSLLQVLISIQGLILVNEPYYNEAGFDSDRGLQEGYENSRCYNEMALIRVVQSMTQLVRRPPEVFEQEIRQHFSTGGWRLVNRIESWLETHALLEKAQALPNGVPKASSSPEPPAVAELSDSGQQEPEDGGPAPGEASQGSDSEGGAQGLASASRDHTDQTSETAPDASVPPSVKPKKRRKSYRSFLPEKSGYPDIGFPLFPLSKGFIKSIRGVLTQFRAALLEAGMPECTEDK
Briefly: pull-down; 0.1 μM purified Flag-UBE2O-TS mixed with 0.1 μM purified CTNNA1-Myc in lysis buffer, captured on anti-c-Myc magnetic beads, 4 °C, 1.5 h, immunoblot. The note with it: both partners purified. (In general: In western blotting, separated proteins are transferred to a membrane and probed.)

Assay [2] concerns the target T1, Flag-UBE2O-TwinStrep (purified …). Briefly: pull-down; 0.1 μM CTNNA1-V5 pre-incubated overnight at 4 °C with 0, 25 or 50 nM His-GST-β-catenin, captured on BSA-blocked V5-Trap beads, washed, then 0.1 μM Flag-UBE2O-TS for 1.5 h at 4 °C, immunoblot. The following applies: both partners purified.

B1: CTNNA1-Myc (purified mouse CTNNA1 with C-terminal Myc tag) (natural protein, UniProt P26231 1-906, looked up)
chain: MTAVHAGNINFKWDPKSLEIRTLAVERLLEPLVTQVTTLVNTNSKGPSNKKRGRSKKAHVLAASVEQATENFLEKGDKIAKESQFLKEELVVAVEDVRKQGDLMKSAAGEFADDPCSSVKRGNMVRAARALLSAVTRLLILADMADVYKLLVQLKVVEDGILKLRNAGNEQDLGIQYKALKPEVDKLNIMAAKRQQELKDVGNRDQMAAARGILQKNVPILYTASQACLQHPDVAAYKANRDLIYKQLQQAVTGISNAAQATASDDAAQHQGGSGGELAYALNNFDKQIIVDPLSFSEERFRPSLEERLESIISGAALMADSSCTRDDRRERIVAECNAVRQALQDLLSEYMGNAGRKERSDALNSAIDKMTKKTRDLRRQLRKAVMDHVSDSFLETNVPLLVLIEAAKNGNEKEVKEYAQVFREHANKLIEVANLACSISNNEEGVKLVRMSASQLEALCPQVINAALALAAKPQSKLAQENMDLFKEQWEKQVRVLTDAVDDITSIDDFLAVSENHILEDVNKCVIALQEKDVDGLDRTAGAIRGRAARVIHVVTSEMDNYEPGVYTEKVLEATKLLSNTVMPRFTEQVEAAVEALSSDPAQPMDENEFIDASRLVYDGIRDIRKAVLMIRTPEELDDSDFETEDFDVRSRTSVQTEDDQLIAGQSARAIMAQLPQEQKAKIAEQVASFQEEKSKLDAEVSKWDDSGNDIIVLAKQMCMIMMEMTDFTRGKGPLKNTSDVISAAKKIAEAGSRMDKLGRTIADHCPDSACKQDLLAYLQRIALYCHQLNICSKVKAEVQNLGGELVVSGVDSAMSLIQAAKNLMNAVVQTVKASYVASTKYQKSQGMASLNLPAVSWKMKAPEKKPLVKREKQDETQTKIKRASQKKHVNPVQALSEFKAMDSI
notes: αE-catenin (CTNNA1), mouse; full-length Ctnna1 in C-terminal Myc-tagged pGEX-6P-1; also called mCTNNA1-Myc; pGEX-6P-1-CTNNA1-Myc; source: E. coli BL21 (DE3), purified (glutathione resin, GST removed with PreScission protease); not shown: Myc, C-terminal, kept
B1: in assay [1], the binding result was “binds”.

B2: CTNNA1-V5 (purified mouse CTNNA1 with C-terminal V5 tag) (natural protein, UniProt P26231 1-906, looked up)
chain: B1 chain
notes: αE-catenin (CTNNA1), mouse; full-length Ctnna1 in C-terminal V5-tagged pGEX-6P-1; As the unmodified 'CTNNA1' bait it went through the ubiquitylation reaction without ATP before capture on V5-Trap; also called mCTNNA1-V5; CTNNA1 bait; source: E. coli BL21 (DE3), purified (glutathione resin, GST removed with PreScission protease); not shown: V5, C-terminal, kept
Turning to B2, the binding result in assay [2] is reported as “binds”.
